We go through three molecules from US20210079109A1 (Regeneron, published 2021).

The target in assay [1] is T1, human CD63 (human, UniProt P08962 2-238).
T1 sequence: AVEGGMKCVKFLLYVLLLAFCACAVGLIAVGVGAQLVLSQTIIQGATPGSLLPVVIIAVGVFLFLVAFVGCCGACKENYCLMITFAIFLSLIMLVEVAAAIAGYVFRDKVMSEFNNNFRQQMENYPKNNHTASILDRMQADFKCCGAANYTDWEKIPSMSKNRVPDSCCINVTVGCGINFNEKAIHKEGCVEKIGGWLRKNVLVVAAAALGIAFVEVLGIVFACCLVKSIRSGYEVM
Description: cell-based or functional assay.

In assay [2] the target is T1, human CD63. Description: flow cytometry, HEK293 cells. The protocol: Relative cell surface binding of the anti-CD63 antibodies to human CD63 expressing cells was accessed via flow cytometry using CD63 positive HEK293 cells (ATCC, Cat #CRL-1573), which endogenously express human CD63, and CD63 negative HEK293/CD63 knock out cells. For the assay, cells were plated in PBS without calcium and magnesium (VWR, Cat #45000-446), containing 2% FBS (Saradigm Cat #1500-500) (Staining Buffer) in 96 well V-bottom plates (Axygen Scientific, Cat #P-96-450-V-C-S). Cells were then incubated with anti-CD63 antibodies or isotype control antibodies at concentrations ranging from 100 nM to 1.7 pM for 30 minutes on ice. Wells containing no antibody were used as controls. HEK293/CD63KO cells were stained with only the highest concentration (100 nM) of the antibodies. […] Cells were then washed and fixed using a 50% solution of Cytofix (BD Biosciences, Cat #554655) diluted in PBS. Samples were run on the Intellicyte Hypercyt flow cytometer and results were analyzed in ForeCyt software (Intellicyte) to calculate the mean fluorescent intensity (MFI). Measured values were analyzed using a four parameter logistic equation over a 12-point response curve using GraphPad Prism and the resulting EC₅₀ values are reported (Table 12). The signal to noise ratio (S/N) was determined by calculating the ratio of the anti-CD63 antibodies or the control antibodies MFI to the wells containing no antibodies (Table 12).
(In general: Flow cytometry measures light scatter and fluorescence of single cells or particles in a stream.)

The target of assay [3] is T1, human CD63. Put plainly: ECL, U87MG cells. The method, boiled down: (§1)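 Detached cells (~2.0×10⁴/well: NIH3T3/hCD63, LNCAP, U87MG, or parental NIH3T3 as negative control) were plated on carbon-electrode plates and blocked with 2% BSA. Anti-CD63 or isotype antibodies (1.7 pM–100 nM, in duplicate) were bound 1 h at RT, then washed. Signal read as electrochemiluminescence.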

Assay [4] deals with T1, human CD63. Put plainly: ECL, NIH3T3/hCD63 cells. The method, boiled down: as §1
In assay [5] the target is T1, human CD63. Description: imaging of stained T47D cells, 10 ug/mL antibody. The protocol:
To stain, quadruplicate plates of cells were incubated with 10 μg/mL of anti-CD63 antibodies that was diluted in 2% FBS in PBS, without Calcium and Magnesium (Irving, Cat #9240) (staining buffer) for 30 minutes at 4° C. […] Two plates were immediately fixed and stained with 4% paraformaldehyde (PFA; ThermoFisher, Cat #28908)+5 uM DRAQ5 (ThermoFisher, Cat #62251) in PBS for 20 minutes (non-internalization plates). The remaining two plates were incubated with growth media at 37° C. for 2 hours followed by fixation and staining for 20 minutes using a solution of 4% PFA+5 μM DRAQ5 diluted in PBS (internalization plates). After fixation, all plates were washed once with PBS. One non-internalization plate and one internalization plate were incubated with an anti-Alexa Fluor 488 antibody (Regeneron) at 50 μg/mL in PBS overnight at 4° C. to quench surface Alexa Fluor 488 fluorescence. The remaining plates were incubated with PBS only. Confocal images were acquired on the Opera Phenix (Perkin Elmer) at 40× magnification. Harmony analysis software (Perkin Elmer) was utilized to identify DRAQ5-labeled cells and the total Alexa-Fluor 488 relative fluorescent units (RFU) per cell was determined. The total binding at 4° C. (RFU values of 4° C. unquenched wells), total binding at 37° C. (RFU values of 37° C. unquenched wells), the total internalized RFU, and the % Internalization were determined for each antibody as shown in Table 1. For all calculations, background fluorescence from 2nd Ab only control wells were subtracted from every well. Total internalized RFU was calculated as follows: Total RFU of 37° C. unquenched samples−Surface RFU at 37° C. Surface RFU is defined as unquenched RFU at 37° C.−quenched RFU at 37° C.)/QE. QE (quenching efficiency) is defined as: 1−(Total RFU of 4° C. quenched sample/Total RFU of 4° C. unquenched sample). The % Internalization was determined from the following formula: (Total internalized RFU at 37° C./Total RFU at 37° C.)*100.

Assay [6] deals with T1, human CD63. Put plainly: ECL, LNCAP cells. In short, it runs like this: as §1

B1: H2M12450N (antibody, V domains shown)
VH: QVQLQESGPKVVKPSETLSLTCTVSGGSISSYYWNWIRQSPGKGLEWIGYTKRGYTDYNPSLRSRVTISEDTSKNQFSLRISSVTAADTAVYYCAQMGWGSHAFDMWGQGTMVAVSS
VL: EIVLTQSPGTLSLSPGERATLSCRASQSVNSRYLAWYQQKPGQAPRLLIYGASSRATGIPDRCSGSGSGTDFTLTISRLEPEDFAVYYCQQYGSSPWTFGQGTKVEIK
notes: also called H2aM12450N; mAb12450
The EC50 is the concentration needed to bring the measured effect to its halfway point. Read a low EC50 as greater potency. As to B1, in the assay with human CD63 [1], the “% Internalization, T47D cells” value came out at 60.9% and the “Total Internalized RFU, T47D cells” value was 1.79e+06 RFU. Besides, in the assay with human CD63 [2], the EC50 worked out at 0.5 nM and the “S/N (MFI over no-antibody wells)” value stood at 26.7. In the assay with human CD63 [3], the EC50 amounted to 1.4 nM and the “binding ratio at 3.7 nM vs NIH3T3” value is 272 fold. Besides, in the assay with human CD63 [4], the midpoint of the response, the EC50, lay at 0.97 nM and the “binding ratio at 3.7 nM vs NIH3T3” value is 281 fold. In addition, in the assay with human CD63 [5], the “Total RFU at 4C” value was 2.36e+06 RFU and the “Total RFU at 37C (2 h)” value stood at 2.94e+06 RFU. In addition, in the assay with human CD63 [6], the EC50 was 1.4 nM and the “binding ratio at 3.7 nM vs NIH3T3” value was 20 fold.

B2: H1M12451N (antibody, V domains shown)
VH: QVQLQESGPGLMKPSETLSLTCTVSGGSFSSYYWNWIRQSPGKGLEWIGYIRYSGDTNYKPSLKSRFTISIDTSKNLFSLRLKSVTAADTAVYYCARMGLGSDAFDIWGQGTMVTVSS
VL: EIVLTQSPGTLSLSPGERATLSCRASQSVNNNYLAWYQQKPGQAPRLLIYGVFNRATNIPDRFSGSGSGTDFTLTISRLEPEDFAVYYCQQYGSSPWTFGQGTKVEIK
For B2, in the assay with human CD63 [1], the “% Internalization, T47D cells” value is 73.7% and the “Total Internalized RFU, T47D cells” value was determined as 1.71e+06 RFU. Besides, in the assay with human CD63 [2], the midpoint of the response, the EC50, lay at 1.8 nM and the “S/N (MFI over no-antibody wells)” value came to 31.6. In addition, in the assay with human CD63 [3], the EC50 was 0.79 nM and the “binding ratio at 3.7 nM vs NIH3T3” value was 171 fold. For the same molecule, in the assay with human CD63 [4], a half-maximal effect (EC50) was put at 0.29 nM and the “binding ratio at 3.7 nM vs NIH3T3” value was found to be 256 fold. In the assay with human CD63 [5], the “Total RFU at 4C” value came out at 1.9e+06 RFU and the “Total RFU at 37C (2 h)” value is 2.32e+06 RFU. Besides, in the assay with human CD63 [6], a half-maximal response (EC50) required 0.35 nM and the “binding ratio at 3.7 nM vs NIH3T3” value came out at 18 fold.

B3: H2M12395N (antibody, V domains shown)
VH: QVQLQESGPRLVKPSETLSLTCIVSGGSISNFYWNWIRQSPGKGLEWIGYFFYTGTIDYNPSLKSRVTISLDTSKNQFSLNLRLLTAADAAVYYCARMGLGANAFDIWGHGTMVTVSS
VL: EIVLTQSPGTLSLSPGERATLSCRASQHVSSNYLAWYQQKPGQAPRLLIYGGSSRATGIPDRFSGSGSGTDFTLTISRLEPADFAVFYCQQYGNSPWTFGQGTKVEMK
notes: also called H2aM12395N
Turning to B3, in the assay with human CD63 [1], the “% Internalization, T47D cells” value was determined as 73.2% and the “Total Internalized RFU, T47D cells” value is 1.24e+06 RFU. In addition, in the assay with human CD63 [2], the EC50 turned out to be 1.9 nM and the “S/N (MFI over no-antibody wells)” value is 21. Besides, in the assay with human CD63 [3], a half-maximal response (EC50) required 0.95 nM and the “binding ratio at 3.7 nM vs NIH3T3” value turned out to be 52 fold. In the assay with human CD63 [4], the EC50 is 0.57 nM and the “binding ratio at 3.7 nM vs NIH3T3” value came to 91 fold. Besides, in the assay with human CD63 [5], the “Total RFU at 4C” value stood at 1.5e+06 RFU and the “Total RFU at 37C (2 h)” value was found to be 1.69e+06 RFU. In addition, in the assay with human CD63 [6], the EC50 stood at 1.7 nM and the “binding ratio at 3.7 nM vs NIH3T3” value amounted to 7 fold.
